The record followed here is patent publication US20030165511A1.

Some results are limits rather than exact numbers.

The target in this assay is bacteriophage P2 of Lactococcus lactis. The assay is described as follows: cell-based or functional assay.

B1: VHH#1 (VHH)
VHH: QVQLQESGGGLVQAGGSLRLSCTASRRTGSNWCMGWFRQLAGKEPELVVALNFDYDMTYYADSVKGRFTVSRDSGKNTVYLQMNSLKPEDTAIYYCAARSGGFSSNRELYDGWGQGTQVTVSS
For B1, the neutralisation in microtiter acidification assay (lowest effective concentration) is 47 ng/mL and the reduction in the phage titre (plaque titration on L. lactis LM0230) was over 99%.
